The values that follow come from PMC3718800, “Structural and Functional Perturbation of Giardia lamblia Triosephosphate Isomerase by Modification of a Non-Catalytic, Non-Conserved Region” (PLoS ONE, 2013).

As usually defined, the Vmax is the rate approached at saturating substrate.

A short description of the series: TIM activity coupled assay, kinetic constants of WT GlTIM and C222 mutants with GAP. It counts as biochemical, Giardia lamblia. The protocol:
Glyceraldehyde 3-phosphate (GAP), buffers, salts and all the other analytical grade reagents were acquired from Sigma–Aldrich; α-glycerol-3-phosphate dehydrogenase (α-GDH) was from Roche, crystallization screen kits were obtained from Hampton Research. Restriction enzymes, DNA polymerase and T4 DNA ligase were purchased from New England BioLabs and Invitrogene. Oligonucleotide synthesis and DNA sequencing was performed at the Unidad de Biología Molecular, Instituto de Fisiología Celular, UNAM. Protein concentration was determined by the bicinchoninic acid method or by absorbance at 280 nm for pure GlTIM (ε280 = 26600 M^-1cm^-1). The TIM activity was determined at 25°C by a coupled assay, following the decrease in absorbance at 340 nm. The standard reaction mixture contained 100 mM triethanolamine/10 mM EDTA, pH 7.4 (TE buffer), 1 mM GAP, 0.2 mM NADH, and 0.9 units of α-GDH (20 μg/mL); the reaction was initiated by addition of 5 ng/mL of WT, C222V or C222M GlTIM, 10 ng/mL of C222N, 20 ng/mL of C222D or C222F, and 200 ng/mL of C222K. Kinetic, binding and stability data were analyzed by non-linear regression calculations with Origin software.
Determination of Km and Vmax was performed by fitting initial velocity data at GAP concentrations ranging from 0.3 to 3 mM to the Michaelis-Menten equation (v = Vmax•S/Km+S) by non-linear regression calculations. […]

B1: GlTIM: recombinant wild type triosephosphate isomerase of Giardia lamblia (protein, UniProt P36186 1-257, looked up)
Triosephosphate isomerase: MPARRPFIGGNFKCNGSLDFIKSHVAAIAAHKIPDSVDVVIAPSAVHLSTAIAANTSKQLRIAAQNVYLEGNGAWTGETSVEMLQDMGLKHVIVGHSERRRIMGETDEQSAKKAKRALEKGMTVIFCVGETLDERKANRTMEVNIAQLEALGKELGESKMLWKEVVIAYEPVWSIGTGVVATPEQAEEVHVGLRKWFAEKVCAEGAQHIRIIYGGSANGSNCEKLGQCPNIDGFLVGGASLKPEFMTMIDILTKTRT
As to B1, the Vmax (GAP 0.3 to 3 mM, 25°C, pH 7.4) was found to be 8050 ± 444 µmol/min/mg. Further, under “calculated from Vmax, molecular mass 27.7 kDa”, the “kcat x 10^5” value is 4.4 x 10^5 min^-1.
